Where a chain is given by its changes, count along the chain named. Numbers in names are those of the source. Values belong to the binder of their own block, whether it stands above or below them.
Assays:
[1] = molecular target: KEAP1 (wild-type full-length), His-tagged (human) (UniProt Q14145); assay: AlphaScreen; 76.8 nM FLAG-NRF2, 150 nM His-KEAP1; Rep 1; control for I28V
[2] = molecular target: KEAP1 (wild-type full-length), His-tagged (human) (UniProt Q14145); assay: AlphaScreen; 19.2 nM FLAG-NRF2, 150 nM His-KEAP1; Rep 2; control for I86V
[3] = molecular target: KEAP1 (wild-type full-length), His-tagged (human) (UniProt Q14145); assay: AlphaScreen; 153.6 nM FLAG-NRF2, 150 nM His-KEAP1; Rep 2; control for I28V
[4] = molecular target: KEAP1 (wild-type full-length), His-tagged (human) (UniProt Q14145); assay: AlphaScreen; 307.2 nM FLAG-NRF2, 150 nM His-KEAP1; Rep 3; control for I86V
[5] = molecular target: KEAP1 (wild-type full-length), His-tagged (human) (UniProt Q14145); assay: AlphaScreen; 1228.8 nM FLAG-NRF2, 150 nM His-KEAP1; Rep 1; control for I28V
[6] = molecular target: KEAP1 (wild-type full-length), His-tagged (human) (UniProt Q14145); assay: AlphaScreen; 38.4 nM FLAG-NRF2, 150 nM His-KEAP1 (same value as in Table 26)
[7] = molecular target: KEAP1 (wild-type full-length), His-tagged (human) (UniProt Q14145); assay: AlphaScreen; 38.4 nM FLAG-NRF2, 150 nM His-KEAP1; signal against NRF2 only; control for I86V
[8] = molecular target: KEAP1 (wild-type full-length), His-tagged (human) (UniProt Q14145); assay: AlphaScreen; 614.4 nM FLAG-NRF2, 150 nM His-KEAP1; signal against NRF2 only; control for I28V
[9] = molecular target: KEAP1 (wild-type full-length), His-tagged (human) (UniProt Q14145); assay: AlphaScreen; FLAG-NRF2 wt isoform 1 9.6 nM, His-KEAP1 150 nM; Rep 3; positive control for I86V
[10] = molecular target: KEAP1 (wild-type full-length), His-tagged (human) (UniProt Q14145); assay: AlphaScreen; FLAG-NRF2 wt isoform 1 38.4 nM, His-KEAP1 150 nM; Rep 2; positive control for I86V
[11] = molecular target: KEAP1 (wild-type full-length), His-tagged (human) (UniProt Q14145); assay: AlphaScreen; FLAG-NRF2 wt isoform 1 38.4 nM, His-KEAP1 150 nM; Rep 3; positive control for I86V
[12] = molecular target: KEAP1 (wild-type full-length), His-tagged (human) (UniProt Q14145); assay: AlphaScreen; FLAG-NRF2 wt isoform 1 1228.8 nM, His-KEAP1 150 nM; Rep 2; positive control for Q75R
[13] = molecular target: KEAP1 (wild-type full-length), His-tagged (human) (UniProt Q14145); assay: AlphaScreen; NRF2 wt isoform 1 9.6 nM, KEAP1 150 nM; signal against NRF2-only control; control for Q75R
[14] = molecular target: KEAP1 (wild-type full-length), His-tagged (human) (UniProt Q14145); assay: AlphaScreen; 4.8 nM FLAG-NRF2, 150 nM His-KEAP1; signal against NRF2 only
[15] = molecular target: KEAP1 (wild-type full-length), His-tagged (human) (UniProt Q14145); assay: AlphaScreen; 76.8 nM FLAG-NRF2, 150 nM His-KEAP1; signal against NRF2 only
[16] = molecular target: KEAP1 (wild-type full-length), His-tagged (human) (UniProt Q14145); assay: AlphaScreen; 614.4 nM FLAG-NRF2, 150 nM His-KEAP1; signal against NRF2 only
[17] = molecular target: KEAP1 (wild-type full-length), His-tagged (human) (UniProt Q14145); assay: AlphaScreen; 19.2 nM FLAG-NRF2, 150 nM His-KEAP1; Repeat 1 (same value as in Table 27)
[18] = molecular target: KEAP1 (wild-type full-length), His-tagged (human) (UniProt Q14145); assay: AlphaScreen; 38.4 nM FLAG-NRF2, 150 nM His-KEAP1; Repeat 1 (same value as in Table 27)
[19] = molecular target: KEAP1 (wild-type full-length), His-tagged (human) (UniProt Q14145); assay: AlphaScreen; 38.4 nM FLAG-NRF2, 150 nM His-KEAP1; against wild-type NRF2 isoform 1 = 100%
[20] = molecular target: KEAP1 (wild-type full-length), His-tagged (human) (UniProt Q14145); assay: AlphaScreen; mean over 9.6, 19.2 and 38.4 nM NRF2; 150 nM His-KEAP1; against wild-type NRF2 isoform 1 = 100%
[21] = molecular target: KEAP1 (wild-type full-length), His-tagged (human) (UniProt Q14145); assay: AlphaScreen; FLAG-NRF2 Q75R 614.4 nM, His-KEAP1 150 nM; Rep 2
[22] = molecular target: KEAP1 (wild-type full-length), His-tagged (human) (UniProt Q14145); assay: AlphaScreen; NRF2 Q75R 19.2 nM, KEAP1 150 nM; signal against NRF2-only control
[23] = molecular target: KEAP1 (wild-type full-length), His-tagged (human) (UniProt Q14145); assay: AlphaScreen; FLAG-NRF2 I86V 19.2 nM, His-KEAP1 150 nM; Rep 1
[24] = molecular target: KEAP1 (wild-type full-length), His-tagged (human) (UniProt Q14145); assay: AlphaScreen; FLAG-NRF2 I86V 38.4 nM, His-KEAP1 150 nM; Rep 1
[25] = molecular target: KEAP1 (wild-type full-length), His-tagged (human) (UniProt Q14145); assay: AlphaScreen; FLAG-NRF2 I86V 307.2 nM, His-KEAP1 150 nM; Rep 2
[26] = molecular target: KEAP1 (wild-type full-length), His-tagged (human) (UniProt Q14145); assay: AlphaScreen; NRF2 I86V 2.4 nM, KEAP1 150 nM; signal against NRF2-only control
[27] = molecular target: KEAP1 (wild-type full-length), His-tagged (human) (UniProt Q14145); assay: AlphaScreen; NRF2 I86V 38.4 nM, KEAP1 150 nM; relative to wild-type NRF2 isoform 1 (100 %)

KEAP1 (wild-type full-length), His-tagged (human), sequence (Q14145 2-624 limits assumed): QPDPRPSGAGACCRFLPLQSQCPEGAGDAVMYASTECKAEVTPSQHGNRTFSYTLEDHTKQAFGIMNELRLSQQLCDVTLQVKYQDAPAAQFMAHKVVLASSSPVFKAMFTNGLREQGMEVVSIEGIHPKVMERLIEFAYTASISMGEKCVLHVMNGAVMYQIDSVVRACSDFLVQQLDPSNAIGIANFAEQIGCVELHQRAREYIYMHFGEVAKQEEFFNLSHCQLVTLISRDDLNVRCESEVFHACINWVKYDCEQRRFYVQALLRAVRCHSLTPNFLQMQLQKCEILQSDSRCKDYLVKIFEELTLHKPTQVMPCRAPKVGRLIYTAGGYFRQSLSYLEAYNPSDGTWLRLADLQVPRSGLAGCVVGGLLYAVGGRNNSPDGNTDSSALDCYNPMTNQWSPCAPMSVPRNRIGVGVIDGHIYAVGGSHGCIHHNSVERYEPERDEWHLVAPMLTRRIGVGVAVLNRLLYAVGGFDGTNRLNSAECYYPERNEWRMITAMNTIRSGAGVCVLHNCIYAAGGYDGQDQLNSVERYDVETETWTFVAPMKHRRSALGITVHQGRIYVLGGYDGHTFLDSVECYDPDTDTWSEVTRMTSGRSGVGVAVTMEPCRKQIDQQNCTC

B1: NRF2 isoform 1 (wild-type full-length), FLAG-tagged (protein)
chain: MMDLELPPPGLPSQQDMDLIDILWRQDIDLGVSREVFDFSQRRKEYELEKQKKLEKERQEQLQKEQEKAFFAQLQLDEETGEFLPIQPAQHIQSETSGSANYSQVAHIPKSDALYFDDCMQLLAQTFPFVDDNEVSSATFQSLVPDIPGHIESPVFIATNQAQSPETSVAQVAPVDLDGMQQDIEQVWEELLSIPELQCLNIENDKLVETTMVPSPEAKLTEVDNYHFYSSIPSMEKEVGNCSPHFLNAFEDSFSSILSTEDPNQLTVNSLNSDATVNTDFGDEFYSAFIAEPSISNSMPSPATLSHSLSELLNGPIDVSDLSLCKAFNQNHPESTAEFNDSDSGISLNTSPSVASPEHSVESSSYGDTLLGLSDSEVEELDSAPGSVKQNGPKTPVHSSGDMVQPLSPSQGQSTHVHDAQCENTPEKELPVSPGHRKTPFTKDKHSSRLEAHLTRDELRAKALHIPFPVEKIINLPVVDFNEMMSKEQFNEAQLALIRDIRRRGKNKVAAQNCRKRKLENIVELEQDLDHLKDEKEKLLKEKGENDKSLHLLKKQLSTLYLEVFSMLRDEDGKPYSPSEYSLQQTRDGNVFLVPKSKKPDVKKN
A-counts [1]: 2000 A-counts
A-counts [2]: 3270 A-counts
A-counts [3]: 1880 A-counts
A-counts [4]: 2910 A-counts
A-counts [5]: 1450 A-counts
S/N [6]: 3.6
S/N [7]: 3
S/N [8]: 1
A-counts (NRF2 plus KEAP1) [9]: 2410 A-counts
A-counts (NRF2 plus KEAP1) [10]: 2850 A-counts
A-counts (NRF2 plus KEAP1) [11]: 3130 A-counts
A-counts (NRF2 plus KEAP1) [12]: 1360 A-counts
S/N [13]: 3

B4: NRF2 isoform 1 (I86V full-length), FLAG-tagged (protein)
chain: B1 chain with I86V
A-counts (NRF2 plus KEAP1) [23]: 3120 A-counts
A-counts (NRF2 plus KEAP1) [24]: 3010 A-counts
A-counts (NRF2 plus KEAP1) [25]: 2120 A-counts
S/N [26]: 2.6
Binding Percentage [27]: 93.7%

Other lines, results leading:

S/N [14]: 2.9
S/N [15]: 2.2
S/N [16]: 1
A-counts [17]: 1730 A-counts
A-counts [18]: 1690 A-counts
Binding Percentage (%) [19]: 63.5%
Average Binding [20]: 69.8%
B2: NRF2 isoform 1 (I28V full-length), FLAG-tagged (protein)
chain: B1 chain with I28V

A-counts (NRF2 plus KEAP1) [21]: 855 A-counts
S/N [22]: 2.5
B3: NRF2 isoform 1 (Q75R full-length), FLAG-tagged (protein)
chain: B1 chain with Q75R
